B1: Argininosuccinate synthase (Homo sapiens), P00966 (parent)
chain: MSSKGSVVLAYSGGLDTSCILVWLKEQGYDVIAYLANIGQKEDFEEARKKALKLGAKKVFIEDVSREFVEEFIWPAIQSSALYEDRYLLGTSLARPCIARKQVEIAQREGAKYVSHGATGKGNDQVRFELSCYSLAPQIKVIAPWRMPEFYNRFKGRNDLMEYAKQHGIPIPVTPKNPWSMDENLMHISYEAGILENPKNQAPPGLYTKTQDPAKAPNTPDILEIEFKKGVPVKVTNVKDGTTHQTSLELFMYLNEVAGKHGVGRIDIVENRFIGMKSRGIYETPAGTILYHAHLDIEAFTMDREVRKIKQGLGLKFAELVYTGFWHSPECEFVRHCIAKSQERVEGKVQVSVLKGQVYILGRESPLSLYNEELVSMNVQGDYEPTDATGFININSLRLKEYHRLQSKVTAK
partner: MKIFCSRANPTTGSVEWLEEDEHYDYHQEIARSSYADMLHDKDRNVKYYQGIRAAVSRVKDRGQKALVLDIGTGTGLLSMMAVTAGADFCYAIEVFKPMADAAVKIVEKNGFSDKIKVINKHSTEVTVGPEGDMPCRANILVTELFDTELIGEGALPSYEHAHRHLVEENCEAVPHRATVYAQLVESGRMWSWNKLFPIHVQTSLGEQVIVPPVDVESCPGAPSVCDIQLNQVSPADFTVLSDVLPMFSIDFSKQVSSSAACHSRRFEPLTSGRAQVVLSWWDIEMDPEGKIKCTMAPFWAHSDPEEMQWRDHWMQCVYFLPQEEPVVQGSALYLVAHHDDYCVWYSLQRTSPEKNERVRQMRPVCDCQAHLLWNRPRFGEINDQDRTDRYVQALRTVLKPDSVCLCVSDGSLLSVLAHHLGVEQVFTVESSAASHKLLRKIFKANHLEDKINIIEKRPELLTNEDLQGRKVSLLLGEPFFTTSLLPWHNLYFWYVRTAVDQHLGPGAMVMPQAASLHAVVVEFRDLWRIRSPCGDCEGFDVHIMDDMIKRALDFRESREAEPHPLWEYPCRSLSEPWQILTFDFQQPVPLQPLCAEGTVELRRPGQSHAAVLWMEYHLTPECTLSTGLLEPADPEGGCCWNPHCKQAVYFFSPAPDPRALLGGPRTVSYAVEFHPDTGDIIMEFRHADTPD

Experiments:
anm7_human PRMT7, Q9NVM4 [1] = variants of: B1; conditions: with anm7_human PRMT7, Q9NVM4
anm7_human PRMT7, Q9NVM4 [2] = variants of: B1; conditions: with anm7_human PRMT7, Q9NVM4; remark: listed apart in the source

| Variant | effect of a mutation on the interaction (anm7_human PRMT7, Q9NVM4 [1]) | effect of a mutation on the interaction (anm7_human PRMT7, Q9NVM4 [2]) |
| --- | --- | --- |
| MSSKGSVVLAYSGGLDTSCILVWLKEQGYDVIAYLANIGQKEDFEEARKKALKLGAKKVFIEDVSREFVEEFIWPAIQSSALYEDRYLLGTSLARPCIARKQVEIAQREGAKYVSHGATGKGNDQVRFELSCYSLAPQIKVIAPWRMPEFYNRFKGRNDLMEYAKQHGIPIPVTPKNPWSMDENLMHISYEAGILENPKNQAPPGLYTKTQDPAKAPNTPDILEIEFKKGVPVKVTNVKDGTTHQTSLELFMYLNEVAGKHGVGRIDIVENRFIGMKSRGIYETPAGTILYHAHLGIEAFTMDREVRKIKQGLGLKFAELVYTGFWHSPECEFVRHCIAKSQERVEGKVQVSVLKGQVYILGRESPLSLYNEELVSMNVQGDYEPTDATGFININSLRLKEYHRLQSKVTAK [D296G] | disrupting interaction strength | decreasing interaction strength |
| MSSKGSVVLAYSGGLDTSCILVWLKEQGYDVIAYLANIGQKEDFEEARKKALKLGAKKVFIEDVSREFVEEFIWPAIQSSALYEDRYLLGTSLARPCIARKQVEIAQREGAKYVSHGATGKGNDQVRFELSCYSLAPQIKVIAPWRMPEFYNRFKGRNDLMEYAKQHGIPIPVTPKNPWSMDENLMHISYEAGILENPKNQAPPGLYTKTQDPAKAPNTPDILEIEFKKGVPVKVTNVKDGTTHQTSLELFMYLNEVAGKHGVGRIDIVENRFIGMKSRGIYETPAGTILYHAHLDIEAFTMDREVRKIKQGLGLKFAELVYTGFWHSPECEFVRHCIAKSQERVEGKVQVSVLKGQVYILGLESPLSLYNEELVSMNVQGDYEPTDATGFININSLRLKEYHRLQSKVTAK [R363L] | disrupting interaction strength | decreasing interaction strength |
| MSSKGSVVLAYSGGLDTSCILVWLKEQGYDVIAYLANIGQKEDFEEARKKALKLGAKKVFIEDVSREFVEEFIWPAIQSSALYEDRYLLGTSLARPCIARKQVEIAQREGAKYVSHGATGKGNDQVRFELSCYSLAPQIKVIAPWRMPEFYNRFKGRNDLMEYAKQHGIPIPVTPKNPWSMDENLMHISYEAGILENPKNQAPPGLYTKTQDPAKAPNTPDILEIEFKKGVPVKVTNVKDGTTHQTSLELFMYLNEVAGKHGVGRIDIVENRFIGMKSRGIYETPAGTILYHAHLDIEAFTMDREVRKIKQGLGLKFAELVYTGFWHSPECEFVRHCIAKSQERVEGKVQVSVLKGQVYALGRESPLSLYNEELVSMNVQGDYEPTDATGFININSLRLKEYHRLQSKVTAK [I360A] | decreasing interaction strength | – |

Source: IntAct's records for PubMed 28587924
